Where a chain is given by its changes, count along the chain named. Read-outs that look alike come from different tables or passages of the source.
Columns and labels:
[1] = Growth performance of early weaned piglets fed SOD and CAT; type: in vivo
Description: The effect of antioxidant enzymes (SOD and CAT) alone at different doses and in combination on the growth performance of early weaned piglets was evaluated in a trial run. A total of eight treatments were tested during the study: 6 test groups: SOD (Product A, SEQ ID No. 1 at 1250 and 2500 U/kg), CAT (Product B, SEQ ID NO 7 and Product C, […]; […]); were compared against a Positive Control feed (fed with Avilamycin at 90.7 g/lb) and a Negative Control (standard ration). Each of treatments contained 12 replicates per treatment randomly assigned and containing 5 male piglets per replicate for a total number of 480 animals on study. Piglets were randomly assigned to treatments on Trial Day 0 (post-weaning at 21 days of age). At 42 days of age, live performance (growth weight gain and feed conversion) was determined. All rations were formulated with an increase of approximately 5-6% additional crude protein above normal commercial levels. Blood samples were collected at day 0, 14 and 42 to evaluate oxidative stress parameters at DSM. Gut tissue samples at the duodenum and ileum to evaluate gene expression linked to oxidative stress, and intestinal content (ileum and caecum), to study the microbiome population, were collected from 12 animals at the beginning of the trial (baseline) and one animal per pen (12 piglets×8 treatments) at day 14 and at day 42.
The commercial-simulated test model employed in this study used piglets reared under a normal swine industry Starter diet (Trial Day 0-21) and Grower diet (Trial Day 21-42), reared on slatted floors. Ration formulations were conducted via computer-generated linear regression program that simulates formulations conducted during practical swine production techniques. Treatments were tested in male piglets. Piglets were continuously fed their experimental diets from time of placement on Trial Day 0 to Trial Day 42.
Piglets were weighed and randomly placed into each pen on Trial Day 0 and fed their respective diets. Each pen had sufficient floor density, feeder and waterer space for each grow-out area for the piglets. Following 42 days of grow-out, piglets were weighed, feed consumption determined, and feed conversion (feed consumed/[…]) calculated.
A total of 500 male piglets (a sufficient number to ensure availability of at least 480 healthy male piglets for the conduct of the study) were obtained from a swine breeder on Trial Day 0 (upon weaning, when the piglets were 21 days of age). Piglets were fed their respective treatment feed ad libitum from Trial Day 0 to Trial Day 42.
Each experimental test unit of swine pens was housed in separated pens, located in a room containing forced air heaters with a cross-house ventilation system. Piglets were placed in a 6 ft×6 ft pen floor area with a minimum of 9.0 ft^2 per piglet (without feeder and waterer space) provided. At least two nipple drinkers per pen (via well water) provided water. Piglets were observed daily for overall health, behavior and/or evidence of toxicity, and environmental conditions. Temperature in the test facility was checked daily. Drinking water and feed were confirmed to be provided ad libitum. No type of medication (other than test material) was administered during the entire feeding period.
Live performance body weights and feed intakes were collected on Days 0, 14, 21, and 42 during the growing period. Weight gain, feed intake, feed:gain ratio (feed efficiency) were calculated for 0-42 days of age between weaning and Trial Day 42. Differences between piglets fed control and test groups were statistically evaluated at P<0.05 in a typical ANOVA analysis of variance test model, employing Treatment×Replicate RCB (Randomized Complete Block). Control group was considered to be the following: Treatment 2, containing Avilamycin at 90.7 g/lb.
Diets were fed in two feed phases: Starter diet (0-21 days of age) and Grower diet (21-42 days of age). All diets were offered ad libitum, without restriction. […]

pepsin [2] = target: T1, pepsin (Sus scrofa, UniProt P00791); assay: Gastric stability of superoxide dismutases (method of Example 10, gastric treatment with pepsin); type: in vitro ADME
T1 construct: purchased Sigma P7000; host or cells: porcine gastric mucosa (natural source)

[3] = Superoxide dismutase activity (method of Example 9, pH 7.8); type: biochemical; conditions: SOD activity
[4] = Thermal stability of superoxide dismutases at different pH, Tm unfolding temperature (method of Example 11); type: physicochemical
Description: Tm: The term Tm, as used in the Examples refers to the temperature at which 50% of the protein molecules are unfolded and 50% of the protein molecules are folded.
Test were performed on the super oxide dismutases of the invention to measure the temperature at different acidity/alkalinity to determine the temperature at which the polypeptide unfolds and denatures. […] A further embodiment is directed to an animal feed additive comprising a fungal superoxide dismutase thermally stable at pH 7, when measured according to the method described in Example 11, such that protein unfolding (Tm) is 45° C. or more.

pepsin [5] = target: T1, pepsin; assay: Gastric stability of superoxide dismutases (method of Example 10, gastric treatment with pepsin); type: in vitro ADME; remark: listed apart in the source
Description: retains only 26% of its activity upon gastric treatment in the presence of pepsin.
Two commercial SODs were tested as references: SOD-Mn, from E. coli Sigma S5639 with a activity of 10240 U/mg EP and only 26% activity left after gastric press for 30 min; and SOD-Cu/Zn from Bovine expressed in E. coli Sigma S9697 with activity of 6108 U/mg EP and only 35% activity left after gastric press for 30 min.

[6] = Piglet trial, growth performance d0-42; type: in vivo; conditions: piglets, days 0-42
From the text: FIG. 17: illustrates the Conversion Ratio (FCR) in piglets from days 0-42. There was significant difference observed in growth performance between positive and negative control.

T1 sequence (P00791 60-385): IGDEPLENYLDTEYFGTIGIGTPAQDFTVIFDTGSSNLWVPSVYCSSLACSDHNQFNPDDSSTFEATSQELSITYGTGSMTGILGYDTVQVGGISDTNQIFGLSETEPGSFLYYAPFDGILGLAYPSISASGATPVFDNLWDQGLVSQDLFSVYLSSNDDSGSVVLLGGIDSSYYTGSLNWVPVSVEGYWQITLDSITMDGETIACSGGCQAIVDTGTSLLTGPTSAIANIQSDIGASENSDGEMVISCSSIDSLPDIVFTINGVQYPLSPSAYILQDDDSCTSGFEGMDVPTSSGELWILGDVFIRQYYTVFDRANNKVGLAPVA

Molecule: COC[C@H]1O[C@@H](OC2OC[C@@H]3O[C@]4(O[C@H]3[C@H]2OC(=O)C(C)C)O[C@H](C)[C@@](O)(C(C)=O)[C@@H]2OCO[C@H]24)[C@@H](OC)[C@@H](O)[C@@H]1O[C@@H]1O[C@H](C)[C@H](OC)[C@H](O[C@H]2C[C@@]3(C)OC4(C[C@@H](O)[C@H](O[C@H]5C[C@@H](O)[C@H](OC(=O)c6c(C)c(Cl)c(O)c(Cl)c6OC)[C@@H](C)O5)[C@@H](C)O4)O[C@@H]3[C@@H](C)O2)[C@H]1O (stereo partly drawn) [T2, Avilamycin]
- feed conversion (FCR) ([1]; d0-d42, vs Negative Control, SOD+CAT 400:100 U/kg): improved
- Average Body Wt. Gain (kg) Day 0-14 ([1]; piglets, day 0-14): 3.720 kg
- Feed Conversion Corrected Day 0-14 ([1]; piglets, day 0-14): 1.215
- Feed Intake (kg/pig) Day 0-14 ([1]; piglets, day 0-14): 4.52 kg/pig
- Mortality % Day 0-14 ([1]; piglets, day 0-14): 0.000%
- Average Body Wt. (kg) Day 14 ([1]; piglets, day 14): 9.215 kg
- Body Weight Coefficient of Variation (Day 14) ([1]; piglets, day 14): 4.700

Molecule: S9697 Bovine Cu/Zn SOD SIGMA: commercially available superoxide dismutase from bovine erythrocytes and expressed in E. coli of sequence A
- Gastric stability after 15 min (remaining activity, approx, %) (pepsin [2]; 0.25 h): 35%
- Relative Activity Unit (U/mg EP) [3]: 6108 U/mg EP
- activity retained at 50° C. ([4]; 50° C., method of Example 11): very little
- Tm (unfolding temperature) ([4]; pH 3): 50.8 °C
- Tm (unfolding temperature) ([4]; pH 4): 59.3 °C
- Tm (unfolding temperature) ([4]; pH 5): 63.9 °C
- Tm (unfolding temperature) ([4]; pH 6): 66.2 °C
- Tm (unfolding temperature) ([4]; pH 7): 65.2 °C
- Tm (unfolding temperature) ([4]; pH 8): 63.1 °C
- Tm (unfolding temperature) ([4]; pH 9): 61.0 °C
- Tm (unfolding temperature) ([4]; pH 10): 57.0 °C
- activity left after gastric press for 30 min (pepsin [5]): 35%
- activity retained upon gastric treatment in the presence of pepsin (pepsin [5]): 26%
- loss of activity under gastric stability studies (pepsin [5]): 65%

B1: SEQ ID NO 35: superoxide dismutase; donor Trichoderma rossicum in b755, Trichoderma sp-44174 in b566 (protein)
chain: MRASGILTVLSLAVSSCVAEKDAPIVTGNPHSVEYKATLPKKPFFSNAALVGNVKGYVSAVAAPSGKGVRFSVQFENFPKSGGPFMYHIHEEPATNGNCTSTLAHLDPYHRGETPACDSSKPETCQVGDLSGKYGKITSDPFVAEYFDLYTSLQPGSPAFFGNRSIVVHYANKTRLTCANFAKLPVSDTATKAHTTTSAHHTVIHGPAASGGRHNTTSSHNITGPHYTTGSHHTTDVSPTGSLNPTGIVTAPGSPTTPATFTTVAAGGSASATSSIVPFPGAASGNRVSLALLSGVVAAMFFSL
modifications: Trichoderma sp-44174
notes: superoxide dismutase; donor Trichoderma rossicum, Trichoderma sp-44174 in b566
- Relative Activity Unit (U/mg EP) [3]: ~3000 U/mg EP
- activity retained under gastric stability studies (pepsin [5]): at least 40%

B2: S5639 from Sigma Mn-SOD Escherichia coli: commercially available bacterial (from E. coli) Mn-SOD (protein, UniProt P00448 2-206, looked up)
Superoxide dismutase [Mn]: SYTLPSLPYAYDALEPHFDKQTMEIHHTKHHQTYVNNANAALESLPEFANLPVEELITKLDQLPADKKTVLRNNAGGHANHSLFWKGLKKGTTLQGDLKAAIERDFGSVDNFKAEFEKAAASRFGSGWAWLVLKGDKLAVVSTANQDSPLMGEAISGASGFPIMGLDVWEHAYYLKFQNRRPDYIKEFWNVVNWDEAAARFAAKK
- Gastric stability after 15 min (remaining activity, approx, %) (pepsin [2]; after 15 min, method of Example 10): 26%
- Relative Activity Unit (U/mg EP) [3]: 10240 U/mg EP
- loss of activity under gastric stability studies (pepsin [5]): 57%
- activity left after gastric press for 30 min (pepsin [5]; 30 min): 26%

B3: SEQ ID NO 18: superoxide dismutase from Cladobotryum sp. (protein)
chain: MARQGLFLASLLIFPFASCAASEDPTGSKPQFASIPDSQQALLGSFSSTMSVSTFSLPALPYAYDALEPSISAQIMELHHSKHHQTYVNNLNNALKSYFVAISANDVPSQIALQAAVKFNGGGHINHSLFWENLCPATSPDADPQSAPTLAAEISKTWGSLEGFKDAMSKALLGLQGSGWGWLVKDGRALRIVTTKDQDPVVGGEVPIFGIDMWEHAYYLQYLNGKAAYVENIWKVINWKTAERRFIGDRDDAFKILKASI
modifications: Cladobotryum sp
- activity retained under gastric stability studies (pepsin [5]): at least 40%

B4: SEQ ID NO 37: superoxide dismutase; donor Trichoderma sp-54723 in b755, Trichoderma rossicum in b566 (protein, listed as Trichoderma rossicum)
chain: B1 chain with T8A, S16G, V18I
- activity retained under gastric stability studies (pepsin [5]): at least 40%

B5: Catalase: Catalase fed alone in the piglet trial of FIG. 17 (protein)
chain: MRHFWLLPAVAGIAGAQCPYLSGEMSFTQEQDNAGDTIEVTEQTIDNTLYVNDTGSYMTTDFGTPISDQYSLKAGRRGPTLLEDFIFRQKLQRFDHERVPERVVHARGAGAYGTFKSYADWSNVTAADFLSANEKETPMFCRFSTVVGFRGSVDTARDVHGHACRFYTDEGNYDIVGINFAPFFIQDAIQFPDLVHAIKPMPNNEIPQAATAHTSAWDFFSQQSTALHSALWLMSGNGIPRSFRHMNGYGVHSFRFVAANGTSKVVRYRWKSQQGVASLVWEEAQAAAGKNSDYHRQDLYNAIANGHYPKYELQAQIMDEADMLRFGFDLLDPTKLVPEEVVPYTPLGMMELNANPTNYFAEVEQAGFQPGHVVPGIDFTDDPLLQGRLFSYLDTQLTRHGGPNFEQIPVNRPRKPVHNNNRDGFGQQQIPTNNWAYTPNTMSNGYPMQANQTHGHGFFTSPYRYASGHLIREPSPTFHDHWSQPAMFWNSLIPAEQQMVVNAIVFENSKVNSPHVRKNVVNQLNMVNNNLAVRVARGLGLDEPSPNPTYYTSNKTSNVGTFGKPLLSIEGLQVGFLASNSHPESIKQGQAMAAQFSAAGVDLNIVTEAYADGVNTTYALSDAIDFDALIIADGVQSLFASPSLANQMNSTATSTLYPPARPYQILVDSFRYGKPVAAVGSGSAALKNAGIDTSRSGVYTGSSETTENIAKEVLKGLYTFRFVDRFALDE
modifications: Aspergillus niger; mat_peptide (1)..(740)
- Feed Conversion Ratio (FCR) [6]: significantly improved the FCR

— US20220218001A1, “REDOX ENZYMES IN ANIMAL FEED COMPOSITIONS” (Novozymes A/S, priority 2019, published 2022)
